B1: library; numbered along this chain (parent)
chain: MAAAGGARLLRAASAVLGGPAGRWLHHAGSRAGSSGLLRNRGPGGSAEASRSLSVSARARSSSEDKITVHFINRDGETLTTKGKVGDSLLDVVVENNLDIDGFGACEGTLACSTCHLIFEDHIYEKLDAITDEENDMLDLAYGLTDRSRLGCQICLTKSMDNMTVRVPETVADARQSIDVGKTS

Variants of: B1
Assay: scaled log2 fold change in cell abundance, elesclomol vs control (0 = silent mean, 1 = nonsense mean) (scaled log2 ratio); higher = higher viability under elesclomol (loss of FDX1 cuproptosis function)
Settings: glucose 10 mM
[1] = with ABC1 FDX1 KO, elesclomol 5 nM, 14 days
[2] = with HEK293T FDX1 KO, elesclomol 40 nM, 11 days
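Note: variant abundance is its share of total variant reads in each endpoint sample, from next-generation sequencing of the integrated ORF PCR-amplified out of genomic DNA.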

Row | Variant | scaled log2 fold change [1] | scaled log2 fold change [2]
1 | MAAAGGARLLRAASAVLGGPAGRWLHHAGSRAGSSGLLRNRGPGGSAEASRSLSVSARARSSSEDKITVHFINRDGETLTTKGKVGDSLLDVVVENNLDIDGFGACEGTLACSTCHLIFEDHIYEKLDAITDEENDMLDLAYGLTDRSRLGCQICLTKIMDNMTVRVPETVADARQSIDVGKTS | -0.459 | 0.0583
2 | MAAAGGARLLRAASAVLGGPAGRWLHHAGSRAGSSGLLRNRGPGGSAEASRSLSVSARARSSSEDKITVHFINRDGETLTTKGKVGDSLLDVVVENNLDIDGFGACEGTLACSTCHLIFEDHIYEKLDAITDEENDMLDLAYGLTDRSRLGCQICLTKKMDNMTVRVPETVADARQSIDVGKTS | 0.382 | -0.162
3 | MAAAGGARLLRAASAVLGGPAGRWLHHAGSRAGSSGLLRNRGPGGSAEASRSLSVSARARSSSEDKITVHFINRDGETLTTKGKVGDSLLDVVVENNLDIDGFGACEGTLACSTCHLIFEDHIYEKLDAITDEENDMLDLAYGLTDRSRLGCQICLTKLMDNMTVRVPETVADARQSIDVGKTS | -0.241 | 0.847
4 | MAAAGGARLLRAASAVLGGPAGRWLHHAGSRAGSSGLLRNRGPGGSAEASRSLSVSARARSSSEDKITVHFINRDGETLTTKGKVGDSLLDVVVENNLDIDGFGACEGTLACSTCHLIFEDHIYEKLDAITDEENDMLDLAYGLTDRSRLGCQICLTKMMDNMTVRVPETVADARQSIDVGKTS | -0.149 | -0.209
5 | MAAAGGARLLRAASAVLGGPAGRWLHHAGSRAGSSGLLRNRGPGGSAEASRSLSVSARARSSSEDKITVHFINRDGETLTTKGKVGDSLLDVVVENNLDIDGFGACEGTLACSTCHLIFEDHIYEKLDAITDEENDMLDLAYGLTDRSRLGCQICLTKNMDNMTVRVPETVADARQSIDVGKTS | 0.273 | -0.128
6 | MAAAGGARLLRAASAVLGGPAGRWLHHAGSRAGSSGLLRNRGPGGSAEASRSLSVSARARSSSEDKITVHFINRDGETLTTKGKVGDSLLDVVVENNLDIDGFGACEGTLACSTCHLIFEDHIYEKLDAITDEENDMLDLAYGLTDRSRLGCQICLTKPMDNMTVRVPETVADARQSIDVGKTS | -1.13 | -0.284
7 | MAAAGGARLLRAASAVLGGPAGRWLHHAGSRAGSSGLLRNRGPGGSAEASRSLSVSARARSSSEDKITVHFINRDGETLTTKGKVGDSLLDVVVENNLDIDGFGACEGTLACSTCHLIFEDHIYEKLDAITDEENDMLDLAYGLTDRSRLGCQICLTKQMDNMTVRVPETVADARQSIDVGKTS | -0.52 | 
8 | MAAAGGARLLRAASAVLGGPAGRWLHHAGSRAGSSGLLRNRGPGGSAEASRSLSVSARARSSSEDKITVHFINRDGETLTTKGKVGDSLLDVVVENNLDIDGFGACEGTLACSTCHLIFEDHIYEKLDAITDEENDMLDLAYGLTDRSRLGCQICLTKRMDNMTVRVPETVADARQSIDVGKTS | -0.282 | 0.159
9 | MAAAGGARLLRAASAVLGGPAGRWLHHAGSRAGSSGLLRNRGPGGSAEASRSLSVSARARSSSEDKITVHFINRDGETLTTKGKVGDSLLDVVVENNLDIDGFGACEGTLACSTCHLIFEDHIYEKLDAITDEENDMLDLAYGLTDRSRLGCQICLTKTMDNMTVRVPETVADARQSIDVGKTS | -0.475 | 0.754

— the supplement of paper PMC12855868
